The sequences below were run on Escherichia coli TOP10 (assay: shrunken log2 fold change of peptide-encoding DNA abundance (4.5 h post-induction vs induction); higher = less antimicrobial activity (less host growth inhibition)). Details: time post-induction: 4.5 h; library: site-saturation at positions 5, 18, 19, 20.
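Also: peptides expressed intracellularly from a pBAD plasmid library in pooled LB shake-flask culture, induced with 0.3% L-arabinose, DNA abundance read by NGS, three biological replicates, DESeq2 with apeglm shrinkage.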

Sequence	shrunken log2 fold change
RRIRDRPPRLPRPRPRPWEAPRP	-0.0176
RRIRRRPPRLPRPRPRPNSKPRP	-0.00313
RRIRHRPPRLPRPRPRPVKTPRP	-0.164
RRIRLRPPRLPRPRPRPKSRPRP	-0.176
RRIRWRPPRLPRPRPRPGVLPRP	0.0321
RRIRWRPPRLPRPRPRPDCHPRP	-0.346
RRIRIRPPRLPRPRPRPEMYPRP	-0.174
RRIRHRPPRLPRPRPRPYKYPRP	-0.128
RRIRWRPPRLPRPRPRPTWMPRP	-0.029
RRIRERPPRLPRPRPRPVTPPRP	0.0669
RRIRGRPPRLPRPRPRPNEFPRP	0.141
RRIRERPPRLPRPRPRPPYLPRP	-0.0371
RRIRNRPPRLPRPRPRPMLIPRP	-0.0638
RRIRDRPPRLPRPRPRPWTPPRP	-0.0489
RRIRQRPPRLPRPRPRPWGMPRP	-0.0405
RRIRKRPPRLPRPRPRPLGTPRP	0.388
RRIRRRPPRLPRPRPRPFNLPRP	-0.109
RRIRCRPPRLPRPRPRPIFKPRP	-0.323
RRIRCRPPRLPRPRPRPSFMPRP	-0.688
RRIRSRPPRLPRPRPRPGYPPRP	-0.209

Sequence	shrunken log2 fold change
RRIRPRPPRLPRPRPRPAQIPRP	0.175
RRIRWRPPRLPRPRPRPQWMPRP	0.0674
RRIRIRPPRLPRPRPRPWMVPRP	-0.619
RRIRHRPPRLPRPRPRPYNDPRP	-0.0648
RRIRCRPPRLPRPRPRPDYKPRP	-0.375
RRIRNRPPRLPRPRPRPNFMPRP	-0.269
RRIRHRPPRLPRPRPRPQPFPRP	-0.213
RRIRCRPPRLPRPRPRPIGYPRP	-0.00724
RRIRKRPPRLPRPRPRPWCYPRP	-0.168
RRIRFRPPRLPRPRPRPGMAPRP	-0.058
RRIRRRPPRLPRPRPRPFCHPRP	-0.17
RRIRWRPPRLPRPRPRPETQPRP	0.0616
RRIRNRPPRLPRPRPRPVTVPRP	-0.404
RRIRYRPPRLPRPRPRPMGIPRP	0.00902
RRIRWRPPRLPRPRPRPPSGPRP	0.127
RRIRSRPPRLPRPRPRPGQTPRP	-0.0742
RRIRWRPPRLPRPRPRPVLFPRP	-0.0589
RRIRRRPPRLPRPRPRPHGPPRP	0.267
RRIRERPPRLPRPRPRPKAHPRP	0.107
RRIRERPPRLPRPRPRPKRAPRP	-0.145

Sequence	shrunken log2 fold change
RRIRVRPPRLPRPRPRPHSFPRP	-0.155
RRIRCRPPRLPRPRPRPNEMPRP	-0.123
RRIRYRPPRLPRPRPRPTHEPRP	0.0198
RRIRTRPPRLPRPRPRPMVVPRP	0.0636
RRIRFRPPRLPRPRPRPDLRPRP	-0.108
RRIRRRPPRLPRPRPRPERYPRP	0.00129
RRIRARPPRLPRPRPRPFHVPRP	0.00498
RRIRHRPPRLPRPRPRPMNMPRP	-0.00968
RRIRYRPPRLPRPRPRPKCQPRP	-0.182
RRIRKRPPRLPRPRPRPHQYPRP	-0.293
RRIRLRPPRLPRPRPRPLVAPRP	0.343
RRIRTRPPRLPRPRPRPMPRPRP	0.175
RRIRSRPPRLPRPRPRPRYLPRP	-0.329
RRIRIRPPRLPRPRPRPEALPRP	0.00934
RRIRVRPPRLPRPRPRPRVPPRP	-0.00723
RRIRSRPPRLPRPRPRPEGCPRP	0.0128
RRIRGRPPRLPRPRPRPAAQPRP	1.12
RRIRYRPPRLPRPRPRPVFFPRP	-0.367
RRIRDRPPRLPRPRPRPAWIPRP	0.0906
RRIRSRPPRLPRPRPRPTEHPRP	-0.0545

Source: the supplement of paper PMC9112550, “Optimization of the antimicrobial peptide Bac7 by deep mutational scanning” (BMC Biology, 2022)
